Laboratory results as given in a protein production outcome set (Wang et al. 2014).

Assay: label from the status in PepcDB records

For “MRVEVFPVEGLPLIKEGDDLAELISSRVRFEDGDVLVVCSTVISKAEGRIRRLEEFNPSERAKEIAARIGKPAEFVQAVLEESEEVLLDFPFLLVKAKFGNVCVNAGIDASNVEEGSLLLPPLDPDGSAEKLRRRILELTGKRVGVIITDTNGRCFRRGVVGFAIGISGVKAMKDWIGRKDLYGRELEVTVECVADEIAAFANLLMGEGGDGIPAVVVRGLNVAGEGSMEEIYRSEEEDVIRRCLKRCL”, the protein production was “not failed”.
With “MKARLLIVVAVLALTACATTTSPTGRRQVVGGVSQQQLDQLGAQSFAQTKAKEKVSTDGKQNAYVQCVVNALVAQLPPQWRETKWETALFVDNEANAFALPGGKVGVNTGIFTVAKTQDQLAAVLGHEIGHVISRHHEERITRQLGAQTGLGIIGALAGAAYGDGAASAVNQVGGMTAQTVFLLPGSRTQESEADVVGQRLMAQAGFDPAQAVTLWQNMMAASGNRQPQWLSTHPDPANRIRELQADVAQLEPVYQQAKQSGRAPRCG” the protein production was “failed”.
For “MTQQDFRTKVDNTVFGVRATALIVQNHKLLVTKDKGKYYTIGGAIQVNESTEDAVVREVKEELGVKAQAGQLAFVVENRFEVDGVSYHNIEFHYLVDLLEDAPLTMQEDEKRQPCEWIDLDKLQNIQLVPVFLKTALPDWEGQLRHIHLEE”, the protein production was “not failed”.
In the case of “SERNDIINFKALEKELQAALTADEKYKRENAAKLRAVEQRVASYEEFRGIVLASHLKPLERKDKMGGKRTVPWNCHTIQGRTFQDVATEISPEKAPLQPETSADFYRDWRRHLPSGPERYQALLQLGGPRLGCLFQTDVGFGLLGELLVALADHVGPADRAAVLGILCSLASTGRFTLNLSLLSRAERESCKGLFQKLQAMGNPRSVKEGLSWEEQGLEEQSGGLQEEERLLQELLELYQVD”, the protein production is reported as “not failed”.
With “MTTTQPEAKDRISSLPVPDATQVPEGVRKLWAKAEANIGFVPNVFRAQAVNGEQFLAWWNYFNLLLNKEGYLTNAERELVAVVVSGVNRCLYCAVSHGAALREFLGDPQKADAVAVNWRHADLTEREQALAAYAEKLTRHPAEVTAADLEPLRAVGLDDHQIMELVQVIGMFNLTNRVSSALGFVPNPEYYRQAR” the protein production was “not failed”.
With “MPTFHEIDVLRHNSASWDAQAARDCEWSRPVSAEEVAAARRGDWAVKLTPGALPAHWLGDVRGREILCLASAGGQQAPILAAAGARVTLFDASAGQLDKDRQVAARDRLELACVQGDMRDLSTFADASFDLVFNPISNLYVDDVLPVWRECARVLRPGGKLLASFYNPALFIEDRSPELAEQGLIRPRHRLPYSDLESLSAEALAAKREKGEALVFGHSLTQQIAGQLAAGLLLQDFYEDWQPHPRFVIDRFVPTFLATCALKPRSAAG” the protein production was “failed”.
With “MKLKNEQQQSWLSLAFVWAGAMISVPGLIIGGTLVAGMPLWEALLTGFIGYGIIVILMILQGIQSSDLQEPSVKVASQVFGIQGSQKIISIILAIACLGWFGLQANVSGGAFTNFLKIYGIDLPVSLSSLIWGIIMLISALYGIKILKILNYFAVPVLVLVCLYGLVASLRNNGWAAVSQYTPQTAGSFMSGLSMTVGSFALGAVIAGDYSQYVSSRKDVVKAATLGILPTGLLMIGVGAVLTIASNTADITEVFMNLGFPVLGIIALILATWTTNAVNAFSGGLALINVFDIPKEKEKVAVGAAGAIGTLLAVVGILNYFTPIMSVLSAMVPPVAGVMIAAYWLINKGDRTKWQPTPGVNKLGVFSWLIGAAVGGIPVIMSFFPNAPQLPNQPLIGIVLSFVIYYFGAKRQQTNTESLEME” the protein production was “failed”.
In the case of “MTAAVARALTLWGLDGASYELAAQRENEVWKVSDGTRHYALRFHRPAYRSEAELTSELLWVEMLGQAGMQVPQPVRQPDGAVLGRIEGRHVSLLDWLGGRPLGKMGQLAPDLDAEAVGRMIGAQMARMHDLSDRWTPPAGFQRPDWRRSGLLGADPLWGRFWEHPDLDPAQRQLMIATRERALACFEDFAPGADQGLIHADLVVENVLVDHDRVAFIDFDDGAWGYRDFDLATVLVKFIGQPDYDRLRAGLCAGYDARRRVEPGTLDFMLLLRALTYPGWIMSRLDEPGGRQRSARMLDTALRLARDFMEERQR”, the protein production is reported as “failed”.
In the case of “MKIITCYKSVPDEQDIVVNNADGSLDFSRANNKISQYDLNAIEAANQLKTQLDGIQITAMSVGGNALTNAKARKDVLSRGADDLVVVVDEQLEASLPYQTATVLAAAATKQGYDLILCGDGSADLSSQQVSLLVGEILNIPAINGVNKIVSITTDSITVERELENEIETLTITLPAVIAVSTDINSPQIPSMKAILGAAKKPVQQWSVADLGLEPITPRSEQTVLAPKQKVRQRIIIEGDGDDQIAEFAEYLRKIIK”, the protein production is reported as “failed”.
With “KQFPGYPEFVLVEIETQRGCPKAMGIGGCSFCTEPVRYKVVENRPQEYVAQEVETFYNMGIRHFRIGRQSCIFSYKARPNGRVPIPKPEEVEKLFKAVRLAAPNVKTLHVDNANPAVIANYPEESRRIAKAIIEYGTPGNVVAFGLETADPKVARINNLNATPEETYEAVKIINEVGGRRGYNGLPWLLPGINIIFGLPGETKRTYELTYEFLKKILDDGLMVRRINIRQVVVFPGTPLWNMRDKVKTEKHKALIEHYRHKIRHEIDLPMLKRVVPVG” the protein production was “failed”.
With “MSDKHDVIVAGAGPAGAQCARDLAERGYDVVVLEAEPEDEFPRQSNKSTAGTFASMMGAFGVPDDVVMQYTDDVVLESPHEYFVQDQPGAVLEFAEFKQWLVAAGEQQGAEYRFEARVNNPITEGGEIVGVKYDGDEEVYGDIIIDATGPAAPLAKKLGVTDLRRSNQAIGIEWEMENVAVDHEGYADLSDAMMLRLDHDLAPGGYSWIFHTGADTAKVGICYIQNESYQRFGDASKSIDDHLDYWMETDPRLADATKLAGKQHRGSAHIQLPANFSTDNFMAIGDTVPTVDPLWGEGIHKCMESARAAAITADRCFMGDDRDTSADALSIYDDLWHKRVAPNARMRLTMTQLLYLASNERYDRLMSDLQTADVGTLSGANEGGLRSLLEFVHTEDVPLLARFARDRLRA” the protein production was “failed”.
For “MNIDEIERKIDEAIEKEDYETLLSLLNKRKELMEGLPKDKLSEILEKDRKRLEIIEKRKTALFQEINVIREARSSLQK”, the protein production was “not failed”.
With “MEGVELELERRSKFLNSLIQKKKAKEQQDQKDEFNVRVRASDMPLPQQNRAFSLSREILNATPGKADNKRLAHALKKDFDSAYGPAWHCIVGTSFGSYVTHSTGGFLYFQIDKVYVLLFKTAVEPLDQK” the protein production was “failed”.
For “MLVRLKETDQRTMISRIKALAPPVQKAGAALLIDGHAELVARGGADGAHLPGIAALKEALPSLKPDRIAGVGGLTTRHHSMDAGEIGADYLLFGEPDAKGQRPSSEAIAERLDWWAELFEPPCVGFATSLEEAYDFAASGADFVLVGEFVWADPRGAKAALIEADATIKKAHAAALASQNPAGEHG”, the protein production was “failed”.
With “MPKLPLLLSFPLLFFASFAYADEDFVTCYSVLKFINANDGSRLHSHDVKYGSGSGQQSVTAVKNSDDINSHWQIFPALNAKCNRGDAIKCGDKIRLKHLTTGTFLHSHHFTAPLSKQHQEVSAFGSEAESDTGDDWTVICNGDEWLESEQFKLRHAVTGSYLSLSGQQFGRPIHGQREVVGTDSITGGSAWKVAEGIYIKHQQKDL” the protein production was “not failed”.
In the case of “MLVRLTMICNGATAATRRGSFPLDEPLEPRSLTRAKAMRGTLRHADRAWTAPALRARQIAEALSLEAAVEPLLADQDHGSWAGKSFEDVQAEQPGDIAAWLADPDAAPHGGESLADVARRASGLMEKLMAEPGHTIAMTHASVIRTAIVHVLGAPLAACWKIDIEPLSITDFRSDGRRWVLRACGVTSPKAAKPLLR”, the protein production is reported as “failed”.
In the case of “NLKDVYVSIADYEGDEETAGFQEGVSMEVLERNPNGWWYCQILDGVKPFKGWVPSNYLEKKN”, the protein production is reported as “not failed”.
With “MNYYGTSMWASDNNTASNSDSSLNLLGILLLASENNKLINNTVLTNLYGVNLMAESTGIGDKTGPSENILASNIISYNLGTGILFDESYGNLIYNNSFDNIWNVEDESLNTWNSSEIGNYWSDYEGEDADGDGVGDTPYLINSHTGSMDYLPVTRSSDFPELEHHHHHH” the protein production was “failed”.
